T1: AtWRKY40 DBD (Arabidopsis thaliana, UniProt Q9SAH7 131-207)
T1 sequence: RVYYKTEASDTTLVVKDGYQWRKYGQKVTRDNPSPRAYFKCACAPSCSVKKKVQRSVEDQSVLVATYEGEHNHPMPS

B1: RLP43 W-box, unmethylated (dsDNA)
DNA 1: CGTAGGGTCAAGCTGT
DNA 2: ACAGCTTGACCCTACG
B2: RLP43 W-box 5mC4 (dsDNA)
DNA 1: CGTAGGGTCAAGCTGT
DNA 2: ACAGCTTGACCCTACG
modifications: 5-methyl-dC at forward strand position 9 (W-box C4)
B3: RLP43 W-box 5mC4 + 5mC1 5mC2 (dsDNA)
DNA 1: CGTAGGGTCAAGCTGT
DNA 2: ACAGCTTGACCCTACG
modifications: 5-methyl-dC at forward position 9 (C4) and reverse positions 10 and 11 (C2, C1)

This data set concerns the target T1, AtWRKY40 DBD. As to the kind of experiment: BLI; steady state; BLI (Octet RED96e, SA sensors): 50 mM Hepes pH 7, 150 mM NaCl, 0.05% Tween20, 25 C, 1000 rpm; duplex loaded at 40 nM, protein 0.25-10 uM. Conditions: protein: recombinant; tags: N-terminal 6xHis (pET28a); label: biotin on forward strand (printed at 5' end); blunt. In general terms: Biolayer interferometry detects binding as a change in optical thickness at a sensor tip.
Take B1: the Kd turned out to be 0.63 µM.

Regarding B2, the Kd stood at 12 µM.

On to B3, for which the Kd turned out to be 9.2 µM.

By Kd is commonly meant the constant that tells how readily two partners part at equilibrium.

The values above are taken from publication doi:10.1101/2022.09.26.509487, “DNA methylation at a single cytosine embedded in the W-box cis-element repels binding of WRKY transcription factors through steric hindrance”.
